Test results reported in patent publication US5882914, “Nucleic acids encoding the hypoxia inducible factor-1” (The Johns Hopkins University School of Medicine).

B1: mLDHA 5'-FS (dsDNA)
DNA 1: GTGGGAGCCCAGCGGACGTGCGGGAA
DNA 2: TTCCCGCACGTCCGCTGGGCTCCCAC
B2: hENO1 5'-FS (dsDNA)
DNA 1: GGCCACGTGCGCCGCCTGCGCCTGCG
DNA 2: CGCAGGCGCAGGCGGCGCACGTGGCC
B3: M18 (dsDNA)
DNA 1: GATCGCCCTAAAAGCTGTCTCA
DNA 2: TGAGACAGCTTTTAGGGCGATC
B4: mPFKL IVS-1 (dsDNA)
DNA 1: CCGGGTAGCTGGCGTACGTGCTGCAG
DNA 2: CTGCAGCACGTACGCCAGCTACCCGG
B5: hPGK1 5'-UT (dsDNA)
DNA 1: CTGCCGACGTGCGCTCCGGAG
DNA 2: CTCCGGAGCGCACGTCGGCAG
B6: W18 (dsDNA)
DNA 1: GATCGCCCTACGTGCTGTCTCA
DNA 2: TGAGACAGCACGTAGGGCGATC
B7: hPGK1 5'-FS (dsDNA)
DNA 1: GTGAGACGTGCGGCTTCCGTTTG
DNA 2: CAAACGGAAGCCGCACGTCTCAC
B8: hEPO 3'-FS (dsDNA)
DNA 1: GCCCTACGTGCTGTCTCACACAGCCTGTCTGA
DNA 2: TCAGACAGGCTGTGTGAGACAGCACGTAGGGC
B9: hEPO 5'-FS (dsDNA)
DNA 1: GGGGCTGCTGCAGACGTGCGTGTG
DNA 2: CACACGCACGTCTGCAGCAGCCCC
B10: hALDA IVS-4 (dsDNA)
DNA 1: CTTCACGTGCGGGGACCAGGGACCGT
DNA 2: ACGGTCCCTGGTCCCCGCACGTGAAG

How the values were obtained:
[1] = molecular target: T1, HIF-1 (HIF-1alpha/HIF-1beta ARNT heterodimer) (Homo sapiens, UniProt Q16665;P27540 Q16665:1-826,P27540:2-789); experiment: EMSA; similar to W18; competed by W18 not M18; conditions: tags: none; 5' GATC overhang added
Method: (§1) The sense strand sequence of the W18 and M18 oligonucleotides was as given above. HIF-1 was partially purified from 50 liters of CoCl_2-treated HeLa cells by crude nuclear extract preparation, DEAE-Sepharose chromatography, MonoQ fast protein liquid chromatography, and DNA affinity chromatography. Incubations with crude nuclear extracts and partially purified HIF-I contained 100 and 1 ng of denatured calf thymus DNA, respectively. Competition experiments were performed with 5 ng of unlabeled W18 or MI8 oligonucleotide.
EMSA was also performed with a preparation of HIF-1 from CoCl_2-treated HeLa cells that was purified approximately 600-fold by DEAE-cellulose, MonoQ, and DNA affinity chromatography. Each probe bound HIF-1 in a manner that was qualitatively and quantitatively similar to the complex formed with W18. The binding of HIF-1 to these probes was sequence-specific as it could be competed by an excess of unlabeled W18 but not by mutant oligonucleotide M18, containing a 3-nucleotide substitution previously shown to eliminate HIF-1 binding and hypoxia-inducible enhancer function. Similar results were obtained when competition experiments involving W18 and M18 were performed with crude nuclear extract from hypoxic Hep3B cells. […] Given the biased method of ascertainment, it is possible that HIF-1 may recognize other sequences not represented by this consensus. In addition to the 6 HIF-1 sites from glycolytic genes, the sequence 5'-CACGTGCT-3' (SEQ ID NO:34) was also present in the hENO1 5'-FS at -786 to -793 (Gialongo et al. (1990) Eur. J. Biochem. 190:567–573) but was not tested for HIF-1 binding. Thus, a total of 7 probable HIF-1 sites were identified in 20.7 kb of nucleotide sequence reported to GenBank for these 5 glycolytic genes. In contrast, no sequences matching the consensus HIF-1 site were identified on either DNA strand within a total of 43.5 kb, comprising the nucleotide sequences of 5 randomly chosen genes, AFP, BUP4, CREB, DHFR, and EPOR (Gibbs et al. (1987) Biochemistry 26;1332–1343; Kurihara et al. (1993) Biochem.

[2] = molecular target: T1, HIF-1 (HIF-1alpha/HIF-1beta ARNT …); experiment: EMSA; similar to W18; competed by W18 not M18; printed CADGTGCG in table; conditions: tags: none; 5' GATC overhang added
Excerpt: as §1, with “Double-stranded oligonucleotides were synthesized according to the sequences shown in Table 2 except that each oligonucleotide contained at its 5'-end the sequence 5'-GATC-3', which formed a single-stranded 5' overhang when complementary oligonucleotides were annealed. The” for “The”
(§2) EMSA was also performed with a preparation of HIF-1 from CoCl_2-treated HeLa cells that was purified approximately 600-fold by DEAE-cellulose, MonoQ, and DNA affinity chromatography. Each probe bound HIF-1 in a manner that was qualitatively and quantitatively similar to the complex formed with W18. The binding of HIF-1 to these probes was sequence-specific as it could be competed by an excess of unlabeled W18 but not by mutant oligonucleotide M18, containing a 3-nucleotide substitution previously shown to eliminate HIF-1 binding and hypoxia-inducible enhancer function. […]

[3] = molecular target: T1, HIF-1 (HIF-1alpha/HIF-1beta ARNT …); experiment: competition; 250-fold excess M18 does not compete; HIF-1 in M18 column flowthrough; conditions: tags: none; 5' GATC overhang
Method: (§3) Figure 3A: FIG. 3A is an autoradiograph showing gel shift assay analysis of column fractions for HIF-1 DNA binding activity. Nuclear extracts were fractionated by DEAE-Sepharose chromatography, and fractions containing HIF-1 activity were applied to a W18 DNA affinity column. 5 ug of protein were incubated with 0.1 ug of calf thymus DNA for gel shift analysis of crude nuclear extract (Crude NE, lane 1) and HIF-1 active fractions from DEAE-Sepharose columns (DEAE, lane 2). For fractions from the W18 column (lanes 3–13), 1 ul aliquots were incubated with 5 ng of calf thymus DNA. The positions of the two HIF-1 bands, constitutive activity (C), nonspecific activity (NS), and free probe (F) are indicated. FT, flowthrough, 0.25M, 0.5M, 1M, and 2M are fractions eluted with indicated concentration of KCl in buffer Z. Figure 3B: FIG. 3B is an autoradiograph showing sequence-specific DNA binding of the partially purified fractions described in the legend to FIG. 3A. 5 ug aliquots of fractions from the DEAE-Sepharose column were incubated with W18 probe in the presence of no competitor (lane 1), 10-fold (lanes 2 and 5), 50-fold (lanes 3 and 6), or 250-fold (lanes 4 and 7) molar excess of unlabeled W18 (W, lanes 2–4) or M18 (M, lanes 5–7) oligonucleotide.

[4] = molecular target: T1, HIF-1 (HIF-1alpha/HIF-1beta ARNT …); experiment: EMSA; buffer Z-100; also UV cross-linking of both subunits, competed by W18 not M18; conditions: tags: none; 5' GATC overhang
Method: as §3
UV Cross-Linking Analysis. […]

[5] = molecular target: T1, HIF-1 (HIF-1alpha/HIF-1beta ARNT …); experiment: EMSA; listed among 8 oligonucleotides shown to bind HIF-1 specifically; conditions: tags: none; 5' GATC overhang added
Excerpt: as §1, with “Double-stranded oligonucleotides were synthesized according to the sequences shown in Table 2 except that each oligonucleotide contained at its 5'-end the sequence 5'-GATC-3', which formed a single-stranded 5' overhang when complementary oligonucleotides were annealed. The” for “The”
as §2

T1 sequence (Q16665 whole entry, chain 1 of 2): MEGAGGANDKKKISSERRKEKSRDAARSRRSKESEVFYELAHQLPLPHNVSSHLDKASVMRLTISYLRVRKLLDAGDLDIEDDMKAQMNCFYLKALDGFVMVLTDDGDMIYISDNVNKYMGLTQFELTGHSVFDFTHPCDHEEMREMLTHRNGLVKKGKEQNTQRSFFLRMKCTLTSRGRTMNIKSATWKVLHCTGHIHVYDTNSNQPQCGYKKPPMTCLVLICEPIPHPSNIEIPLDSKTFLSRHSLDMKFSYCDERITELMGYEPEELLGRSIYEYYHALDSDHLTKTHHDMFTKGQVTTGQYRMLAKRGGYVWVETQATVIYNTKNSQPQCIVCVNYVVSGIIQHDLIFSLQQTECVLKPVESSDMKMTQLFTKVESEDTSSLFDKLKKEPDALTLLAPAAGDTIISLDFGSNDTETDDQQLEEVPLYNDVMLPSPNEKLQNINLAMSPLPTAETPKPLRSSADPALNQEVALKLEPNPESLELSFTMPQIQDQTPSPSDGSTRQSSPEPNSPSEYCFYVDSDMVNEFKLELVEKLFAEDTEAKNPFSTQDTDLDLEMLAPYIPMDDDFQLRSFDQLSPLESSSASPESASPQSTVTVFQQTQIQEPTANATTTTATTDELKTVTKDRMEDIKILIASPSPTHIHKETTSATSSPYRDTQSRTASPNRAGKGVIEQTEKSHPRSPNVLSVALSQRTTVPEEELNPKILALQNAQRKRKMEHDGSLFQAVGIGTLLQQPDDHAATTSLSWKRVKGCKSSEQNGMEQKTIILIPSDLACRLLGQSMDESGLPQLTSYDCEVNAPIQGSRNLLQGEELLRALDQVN
T1 sequence (P27540 2-789, chain 2 of 2): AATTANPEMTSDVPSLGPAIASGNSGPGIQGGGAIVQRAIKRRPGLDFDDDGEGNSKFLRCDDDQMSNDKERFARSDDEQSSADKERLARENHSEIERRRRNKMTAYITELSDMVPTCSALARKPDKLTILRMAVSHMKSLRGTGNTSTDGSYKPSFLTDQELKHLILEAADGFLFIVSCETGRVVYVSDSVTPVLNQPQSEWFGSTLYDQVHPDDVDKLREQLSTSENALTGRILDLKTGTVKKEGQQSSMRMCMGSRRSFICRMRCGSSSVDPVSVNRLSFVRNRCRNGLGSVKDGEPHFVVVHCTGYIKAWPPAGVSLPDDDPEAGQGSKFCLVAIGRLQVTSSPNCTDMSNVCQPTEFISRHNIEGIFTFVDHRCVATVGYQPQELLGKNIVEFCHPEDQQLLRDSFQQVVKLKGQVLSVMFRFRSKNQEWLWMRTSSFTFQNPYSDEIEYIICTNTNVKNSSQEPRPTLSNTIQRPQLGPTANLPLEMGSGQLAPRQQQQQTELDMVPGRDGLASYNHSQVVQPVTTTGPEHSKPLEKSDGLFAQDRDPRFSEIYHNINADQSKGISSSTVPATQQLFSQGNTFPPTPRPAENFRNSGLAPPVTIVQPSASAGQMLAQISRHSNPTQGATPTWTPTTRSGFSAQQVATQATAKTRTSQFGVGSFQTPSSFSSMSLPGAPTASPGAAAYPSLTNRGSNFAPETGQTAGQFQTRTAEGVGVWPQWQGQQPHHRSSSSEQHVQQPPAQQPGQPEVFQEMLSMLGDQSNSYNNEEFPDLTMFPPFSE

| Binder | binding result [1] | further results |
| --- | --- | --- |
| B1 | binds |  |
| B2 |  | binding result [2]: binds |
| B3 |  | binding result [3]: no binding |
| B4 | binds |  |
| B5 | binds |  |
| B6 |  | binding result [4]: binds |
| B7 | binds |  |
| B8 |  | binding result [5]: binds |
| B9 | binds |  |
| B10 | binds |  |
